The record followed here is paper PMC6797079.

First the molecules themselves.
B1: sodium/iodide symporter (NIS), wild type, cerulean- or citrine-tagged [human] / itself (parent)
chain: MEAVETGERPTFGAWDYGVFALMLLVSTGIGLWVGLARGGQRSAEDFFTGGRRLAALPVGLSLSASFMSAVQVLGVPSEAYRYGLKFLWMCLGQLLNSVLTALLFMPVFYRLGLTSTYEYLEMRFSRAVRLCGTLQYIVATMLYTGIVIYAPALILNQVTGLDIWASLLSTGIICTFYTAVGGMKAVVWTDVFQVVVMLSGFWVVLARGVMLVGGPRQVLTLAQNHSRINLMDFNPDPRSRYTFWTFVVGGTLVWLSMYGVNQAQVQRYVACRTEKQAKLALLINQVGLFLIVSSAACCGIVMFVFYTDCDPLLLGRISAPDQYMPLLVLDIFEDLPGVPGLFLACAYSGTLSTASTSINAMAAVTVEDLIKPRLRSLAPRKLVIISKGLSLIYGSACLTVAALSSLLGGGVLQGSFTVMGVISGPLLGAFILGMFLPACNTPGVLAGLGAGLALSLWVALGATLYPPSEQTMRVLPSSAARCVALSVNASGLLDPALLPANDSSRAPSSGMDASRPALADSFYAISYLYYGALGTLTTVLCGALISCLTGPTKRSTLAPGLLWWDLARQTASVAPKEEVAILDDNLVKGPEELPTGNKKPPGFLPTNEDRLFFLGQKELEGAGSWTPCVGHDGGRDQQETNL

The test covers variants of B1. Nature of the test: FRET. The conditions noted are these: with itself, n = 2, minimum of 20 cells analyzed in each n, read off a plot.

For the variant chain 1 D237A, the response (arbitrary units) is, setting by setting: (HeLa cells, parent: 20) 0; (SW1736 cells, parent: 0) -70.

Take chain 1 A525F: the response (arbitrary units) runs as follows: (HeLa cells, parent: 20) 120; (SW1736 cells, parent: 0) 30.
